Molecular target: semiSWEET
Experiment: native MS

percent dimer: > 95%
stoichiometry N: 2
Substance: semiSWEET (natural protein)

Source: paper PMC10932606
